Assay results published in patent EP4431529A1 (Sunshine Guojian Pharmaceutical (Shanghai) Co., Ltd., dated 2024).

How the values were obtained:
IL-17A protein [1] = molecular target: T1, IL-17A protein (human, UniProt Q16552 24-155); assay: cell-based or functional assay
T1 sequence (looked up): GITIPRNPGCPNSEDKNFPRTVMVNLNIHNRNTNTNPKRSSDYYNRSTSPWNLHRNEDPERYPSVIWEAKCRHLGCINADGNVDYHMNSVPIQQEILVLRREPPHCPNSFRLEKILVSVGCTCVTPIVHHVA

IL-17A protein [2] = molecular target: T1, IL-17A protein; assay: SPR, Biacore 8K, antibody captured on Protein A, IL-17A as analyte
IL-17A protein [3] = molecular target: T1, IL-17A protein; assay: ELISA, IL-17A coated on the plate
VEGF165 = molecular target: T2, VEGF165 (UniProt P15692-4 27-191); assay: ELISA, VEGF coated on the plate
T2 construct: treated as one molecule; also called VEGF protein; VGEF
T2 sequence (P15692 other isoform, or with tags, fused parts or gaps limits assumed): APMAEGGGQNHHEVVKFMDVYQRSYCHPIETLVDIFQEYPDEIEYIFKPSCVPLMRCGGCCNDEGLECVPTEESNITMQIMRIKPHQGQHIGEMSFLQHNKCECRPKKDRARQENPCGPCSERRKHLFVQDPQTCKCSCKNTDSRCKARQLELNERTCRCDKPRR

IC50 of blocking IL-17A-induced IL-6 secretion from HeLa cells (IL-17A protein [1]): 877 pM
Kd (IL-17A protein [2]): 16.4 pM
koff (IL-17A protein [2]): 4e-05 s⁻¹
kon (IL-17A protein [2]): 2.44e+06 M⁻¹ s⁻¹
EC50 (IL-17A protein [3]): 52 pM
B1: anti-IL-17 monoclonal antibody 608 (antibody, human IgG1, kappa, V domains shown)
VH: EVQLVESGGGLVQPGGSLRLSCAASGFTFSSFDMSWGRQAPGKRLEWVAFMSSGGSTYYPDSVKGRFTISRDNSKNTLYLQMNSLRAEDTAVYYCARGERYGSYWGQGTLVTVSS
VL: DIQMTQSPSSLSASVGDRVTITCKASDHINNWLAWYQQKPGKAPKLLISGATSLETGVPSRFSGSGSGTDYTLTISSLQPEDFATYYCQQYWSTPFTFGSGTKLEIKR
notes: Humanized anti-human IL-17A monoclonal antibody from CN 201780033670.5; positive control
binding result (VEGF165): no binding (tested: 25 nM (highest concentration tested))
